Here are results for one molecule from patent publication US6051224, “Compositions and methods for targeting cells and modulating pulmonary surfactant secretion” (Thomas Jefferson University, dated 2000).

This assay addresses purified recombinant human surfactant protein A (human, UniProt Q8IWL2, 125I radioiodination using chloramine T). Description: ligand blot of lysogen proteins (SDS-PAGE, PVDF, 125I-SP-A).

B1: recombinant porcine SP-A recognition protein (SPAR) encoded by the 1.8-kb porcine lung cDNA, expressed from lambda gt11 in E. coli Y1089 (receptor)
chain: MDMCYGMMGSLFRSGSRQTLFASQVMRYADLYAASFINLLYYPFSYLFRAAHVLMPHESTVEHTHVDINEMESPLATRNRTSVDFKDTDYKRHQLTRSISEIKPPNLFPLAPQEITHCHDEDDDEEEEEEEEECGGKPKLSALIKQVLAGLTGAKAVSLWVLVGGGGLHQRYILESFLKTLKYSNHREILVLVFCICTLCSWFRIVRESVSEERKGQAGLNCMQLAPLWFVTLFHHQYIIVYPETRRVVEGPRVKQRQWEEVIQKCYGTNWALTTKTHLFQCIT
As to B1, the binding result is listed as “binds”.
